Data reported in the supplement of paper PMC10065799, “High-throughput profiling of sequence recognition by tyrosine kinases and SH2 domains using bacterial peptide display” (eLife, 2023).

Experiments:
[1] = target: Fyn (UniProt P06241); assay: phosphorylation enrichment, bacterial display (enrichment ratio); higher = better substrate or ligand; peptides without Tyr show the background
[2] = target: FGFR1 (UniProt P11362); assay: as above
[3] = target: Fes (UniProt P07332); assay: as above
[4] = target: EPHB2 (UniProt P29323); assay: as above
[5] = target: Jak2 (UniProt O60674); assay: as above
[6] = test system: Fer (mouse); assay: as above
[7] = target: Hck (UniProt P08631); assay: as above
[8] = test system: c-Src; assay: as above
[9] = target: MERTK (UniProt Q12866); assay: as above
[10] = test system: c-Abl (mouse); assay: as above
[11] = target: EPHB1 (UniProt P54762); assay: as above
[12] = target: FGFR3 (UniProt P22607); assay: as above
[13] = test system: AncSZ; assay: as above
[14] = target: SHP2-C SH2; assay: SH2 binding enrichment of the phosphorylated peptide, bacterial display (enrichment ratio); higher = better substrate or ligand; peptides without Tyr show the background
[15] = target: Grb2 SH2 (UniProt P62993); assay: as above
[16] = target: c-Src SH2; assay: as above
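Wherever SH2 binding enrichment of the phosphorylated peptide, bacterial display is given: peptide library displayed on the E. coli surface as eCPX fusions, selected cells deep-sequenced, score is each peptide's frequency after selection divided by its frequency in the input.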
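Wherever phosphorylation enrichment, bacterial display is given: 11-residue human phosphosite peptides and single-mutation variants displayed on the E. coli surface, counted by deep sequencing, each peptide's frequency after selection divided by its frequency in the unselected input library; frequency after pTyr selection over input frequency; kinase dosed for 20-30% of maximal phosphorylation in three min.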

Chain of Jak2 (O60674 whole entry, looked up): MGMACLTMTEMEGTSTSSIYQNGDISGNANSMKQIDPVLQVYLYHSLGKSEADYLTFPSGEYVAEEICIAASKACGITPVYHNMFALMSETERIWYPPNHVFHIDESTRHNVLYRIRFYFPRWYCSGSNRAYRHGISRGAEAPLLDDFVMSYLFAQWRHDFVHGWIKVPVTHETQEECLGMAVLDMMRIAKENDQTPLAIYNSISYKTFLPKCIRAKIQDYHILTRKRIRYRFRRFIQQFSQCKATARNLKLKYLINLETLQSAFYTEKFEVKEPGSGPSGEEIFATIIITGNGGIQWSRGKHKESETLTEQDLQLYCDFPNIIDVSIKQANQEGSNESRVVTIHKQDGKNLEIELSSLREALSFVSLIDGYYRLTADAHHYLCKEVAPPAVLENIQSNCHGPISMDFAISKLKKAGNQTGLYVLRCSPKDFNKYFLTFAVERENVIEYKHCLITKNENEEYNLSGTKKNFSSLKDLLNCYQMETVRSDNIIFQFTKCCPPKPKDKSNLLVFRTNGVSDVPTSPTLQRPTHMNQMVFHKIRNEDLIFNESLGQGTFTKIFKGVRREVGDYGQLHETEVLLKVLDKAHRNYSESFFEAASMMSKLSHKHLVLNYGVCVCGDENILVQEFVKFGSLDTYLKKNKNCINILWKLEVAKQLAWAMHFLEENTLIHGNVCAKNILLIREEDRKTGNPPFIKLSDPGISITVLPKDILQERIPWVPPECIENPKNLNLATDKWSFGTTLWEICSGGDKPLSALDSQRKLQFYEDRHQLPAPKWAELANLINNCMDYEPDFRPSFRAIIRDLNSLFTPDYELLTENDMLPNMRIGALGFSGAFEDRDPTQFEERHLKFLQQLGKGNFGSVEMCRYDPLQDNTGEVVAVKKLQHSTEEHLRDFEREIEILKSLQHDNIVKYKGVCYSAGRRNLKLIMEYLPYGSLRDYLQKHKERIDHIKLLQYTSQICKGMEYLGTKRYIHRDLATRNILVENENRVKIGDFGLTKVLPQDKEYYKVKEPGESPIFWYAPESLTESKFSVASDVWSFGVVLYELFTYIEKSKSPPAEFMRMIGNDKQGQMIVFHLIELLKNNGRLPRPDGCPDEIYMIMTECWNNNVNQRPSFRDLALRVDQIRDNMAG
Chain of Hck (P08631 whole entry, looked up): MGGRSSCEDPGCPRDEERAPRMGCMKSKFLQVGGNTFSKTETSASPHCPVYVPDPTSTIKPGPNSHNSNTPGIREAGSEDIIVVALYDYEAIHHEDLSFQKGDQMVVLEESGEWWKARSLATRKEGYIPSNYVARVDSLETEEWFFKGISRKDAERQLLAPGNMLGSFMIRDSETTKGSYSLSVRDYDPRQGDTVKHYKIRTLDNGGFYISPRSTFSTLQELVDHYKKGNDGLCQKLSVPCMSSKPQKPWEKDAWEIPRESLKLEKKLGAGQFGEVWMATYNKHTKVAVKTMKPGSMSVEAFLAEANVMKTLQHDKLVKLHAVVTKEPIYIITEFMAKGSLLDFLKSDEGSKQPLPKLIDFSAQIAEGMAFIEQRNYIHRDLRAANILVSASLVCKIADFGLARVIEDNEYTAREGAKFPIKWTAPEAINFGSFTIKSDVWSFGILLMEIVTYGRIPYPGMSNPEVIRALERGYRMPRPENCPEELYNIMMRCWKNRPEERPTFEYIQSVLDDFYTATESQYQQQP
Chain of FGFR1 (P11362 whole entry, looked up): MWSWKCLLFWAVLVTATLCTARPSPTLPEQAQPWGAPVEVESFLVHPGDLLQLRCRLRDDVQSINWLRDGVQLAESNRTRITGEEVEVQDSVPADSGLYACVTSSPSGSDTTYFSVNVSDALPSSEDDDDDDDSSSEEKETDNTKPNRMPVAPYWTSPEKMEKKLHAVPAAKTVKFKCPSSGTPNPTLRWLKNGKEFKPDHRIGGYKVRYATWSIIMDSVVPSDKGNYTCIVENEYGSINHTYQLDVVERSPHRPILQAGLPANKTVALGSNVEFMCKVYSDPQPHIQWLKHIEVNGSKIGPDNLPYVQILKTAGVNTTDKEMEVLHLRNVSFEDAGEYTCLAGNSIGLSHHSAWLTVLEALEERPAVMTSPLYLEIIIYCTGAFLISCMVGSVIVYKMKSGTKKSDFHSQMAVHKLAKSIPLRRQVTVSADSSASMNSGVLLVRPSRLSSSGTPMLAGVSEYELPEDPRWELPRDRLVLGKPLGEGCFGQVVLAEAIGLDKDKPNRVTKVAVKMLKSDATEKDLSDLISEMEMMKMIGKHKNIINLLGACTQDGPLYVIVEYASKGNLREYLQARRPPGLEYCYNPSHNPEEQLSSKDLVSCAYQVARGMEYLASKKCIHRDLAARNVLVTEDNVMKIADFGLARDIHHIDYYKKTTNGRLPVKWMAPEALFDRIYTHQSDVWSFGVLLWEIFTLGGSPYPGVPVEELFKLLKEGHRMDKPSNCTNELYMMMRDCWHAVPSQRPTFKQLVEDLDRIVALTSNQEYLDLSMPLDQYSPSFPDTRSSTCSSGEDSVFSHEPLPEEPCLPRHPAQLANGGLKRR
Chain of EPHB1 (P54762 whole entry, looked up): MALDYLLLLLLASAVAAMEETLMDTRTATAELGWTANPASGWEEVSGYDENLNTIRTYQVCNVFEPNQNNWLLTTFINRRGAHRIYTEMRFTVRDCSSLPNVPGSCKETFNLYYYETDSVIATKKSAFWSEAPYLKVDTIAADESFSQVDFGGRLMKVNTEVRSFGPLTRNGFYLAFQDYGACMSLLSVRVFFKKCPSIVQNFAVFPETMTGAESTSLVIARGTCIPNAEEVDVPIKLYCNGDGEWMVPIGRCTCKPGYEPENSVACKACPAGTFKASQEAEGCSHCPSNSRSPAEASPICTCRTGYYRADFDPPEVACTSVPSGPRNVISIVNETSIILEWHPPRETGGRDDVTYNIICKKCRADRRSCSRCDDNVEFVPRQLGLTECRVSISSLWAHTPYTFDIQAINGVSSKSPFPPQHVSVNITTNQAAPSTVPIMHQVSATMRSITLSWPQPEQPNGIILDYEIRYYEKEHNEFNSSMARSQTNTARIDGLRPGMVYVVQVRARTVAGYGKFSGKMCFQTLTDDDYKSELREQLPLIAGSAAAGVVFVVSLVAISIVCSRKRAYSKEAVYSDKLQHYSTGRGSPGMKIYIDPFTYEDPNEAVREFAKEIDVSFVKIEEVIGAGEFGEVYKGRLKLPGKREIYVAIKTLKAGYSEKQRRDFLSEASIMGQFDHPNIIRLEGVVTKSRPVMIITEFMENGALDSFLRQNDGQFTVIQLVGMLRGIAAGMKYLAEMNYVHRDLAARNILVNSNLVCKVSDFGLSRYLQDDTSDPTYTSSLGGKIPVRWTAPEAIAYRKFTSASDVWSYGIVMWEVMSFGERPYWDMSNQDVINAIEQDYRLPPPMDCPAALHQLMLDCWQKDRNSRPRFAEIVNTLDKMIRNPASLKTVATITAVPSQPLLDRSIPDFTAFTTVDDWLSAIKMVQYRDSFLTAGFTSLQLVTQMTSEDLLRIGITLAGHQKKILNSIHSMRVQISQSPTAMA
Chain of Fes (P07332 whole entry, looked up): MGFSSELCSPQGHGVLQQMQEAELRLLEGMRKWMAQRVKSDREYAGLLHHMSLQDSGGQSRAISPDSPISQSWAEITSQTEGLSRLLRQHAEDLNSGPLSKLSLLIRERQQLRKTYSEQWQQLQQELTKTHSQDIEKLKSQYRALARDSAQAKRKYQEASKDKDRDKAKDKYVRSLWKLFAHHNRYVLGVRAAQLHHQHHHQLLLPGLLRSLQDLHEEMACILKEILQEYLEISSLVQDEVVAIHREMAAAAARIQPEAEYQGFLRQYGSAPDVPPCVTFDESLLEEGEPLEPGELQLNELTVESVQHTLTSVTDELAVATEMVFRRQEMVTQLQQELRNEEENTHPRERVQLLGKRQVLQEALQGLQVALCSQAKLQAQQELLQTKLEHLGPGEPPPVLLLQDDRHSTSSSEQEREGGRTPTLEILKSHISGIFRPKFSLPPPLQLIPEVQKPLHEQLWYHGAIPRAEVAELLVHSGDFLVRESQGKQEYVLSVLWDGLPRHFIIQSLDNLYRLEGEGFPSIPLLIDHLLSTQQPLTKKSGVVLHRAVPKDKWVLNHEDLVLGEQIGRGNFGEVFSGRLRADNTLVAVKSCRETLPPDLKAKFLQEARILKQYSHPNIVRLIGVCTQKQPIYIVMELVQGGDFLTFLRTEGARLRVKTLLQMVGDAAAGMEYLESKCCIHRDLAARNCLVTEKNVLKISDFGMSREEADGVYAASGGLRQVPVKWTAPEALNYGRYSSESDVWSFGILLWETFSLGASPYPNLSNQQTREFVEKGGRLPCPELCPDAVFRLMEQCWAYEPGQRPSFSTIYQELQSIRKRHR
Chain of Fyn (P06241 whole entry, looked up): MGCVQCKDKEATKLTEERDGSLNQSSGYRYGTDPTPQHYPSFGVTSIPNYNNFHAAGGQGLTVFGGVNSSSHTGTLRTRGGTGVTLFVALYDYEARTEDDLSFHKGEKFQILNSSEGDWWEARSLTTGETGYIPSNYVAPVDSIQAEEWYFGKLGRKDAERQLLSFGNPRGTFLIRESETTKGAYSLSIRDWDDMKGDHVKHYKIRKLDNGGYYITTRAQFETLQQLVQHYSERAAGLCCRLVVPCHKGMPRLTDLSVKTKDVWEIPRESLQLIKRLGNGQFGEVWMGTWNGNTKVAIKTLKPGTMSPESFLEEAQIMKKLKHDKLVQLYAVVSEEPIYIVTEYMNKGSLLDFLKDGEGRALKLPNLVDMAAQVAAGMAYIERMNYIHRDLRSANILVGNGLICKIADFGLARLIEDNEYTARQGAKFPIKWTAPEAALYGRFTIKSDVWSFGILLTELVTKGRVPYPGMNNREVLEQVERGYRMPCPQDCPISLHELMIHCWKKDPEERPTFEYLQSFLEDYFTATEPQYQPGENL
Chain of Grb2 SH2 (P62993 whole entry, looked up): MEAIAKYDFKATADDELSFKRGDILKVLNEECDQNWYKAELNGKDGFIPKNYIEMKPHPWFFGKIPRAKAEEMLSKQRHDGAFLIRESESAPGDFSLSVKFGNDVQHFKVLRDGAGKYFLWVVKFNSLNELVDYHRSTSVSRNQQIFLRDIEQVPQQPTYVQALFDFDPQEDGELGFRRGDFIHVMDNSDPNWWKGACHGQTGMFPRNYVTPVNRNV

Sequence	phosphorylation enrichment [1]	phosphorylation enrichment [2]	phosphorylation enrichment [3]	phosphorylation enrichment [4]	phosphorylation enrichment [5]	phosphorylation enrichment [6]	phosphorylation enrichment [7]	phosphorylation enrichment [8]	phosphorylation enrichment [9]	phosphorylation enrichment [10]	phosphorylation enrichment [11]	phosphorylation enrichment [12]	phosphorylation enrichment [13]	SH2 binding enrichment [14]	SH2 binding enrichment [15]	SH2 binding enrichment [16]
DHYNQYEQQKM [CHD7_Y75]	0.639	0.438	0.728	0.402	0.782	0.451	0.434	0.478	0.359	0.445	0.444	0.524	0.844	0.824	0.56	0.472
DIDKIYVRTGI [PIK3CA_Y355]	0.458	0.518	0.934	0.593	0.878	0.525	0.529	0.528	0.33	0.713	0.697	0.772	0.975	0.757	0.864	0.539
DKEKWYPLGTS [PIK3C2G_Y1438_N1442T]	0.505	0.409	0.931	0.496	0.765	0.55	0.44	0.486	0.458	0.591	0.544	0.642	0.821	0.513	0.852	0.403
DKITQYVEEVK [STX2_Y49]	0.509	0.552	1.23	0.581	0.876	0.479	0.421	0.425	0.505	0.698	0.507	0.78	1.11	0.752	0.918	0.555
DKTGEYPVPLI [ACADM_Y73]	0.407	0.468	0.957	0.575	0.856	0.442	0.49	0.436	0.392	0.55	0.528	0.687	0.809	0.697	0.666	0.399
DLAGRYYALKS [CKB_Y173]	0.538	1.04	0.878	0.419	1.58	0.597	0.726	0.571	1.65	0.577	0.406	0.85	0.572	0.722	0.824	1.47
DLAGRYYALRS [CKB_Y173_K177R]	0.484	0.963	0.649	0.439	1.65	0.477	0.681	0.487	2.19	0.544	0.352	0.811	0.729	0.9	0.775	1.87
DLDFTYIYPNI [PTEN_Y27_L25F]	2.5	4.18	1.23	0.945	2.36	0.501	1.37	1.47	1.22	0.953	0.83	3.11	4.17	0.496	0.67	2.69
DLDLTYIYPNI [PTEN_Y27]	2.84	3.8	0.871	0.961	1.57	0.424	1.37	1.4	2.41	0.612	1.71	2.61	3.91	0.962	1.29	3.33
DLDPNYVVSSR [CKM_Y125_L127V]	0.45	0.539	0.943	0.546	0.843	0.494	0.573	0.46	0.453	0.713	0.561	0.69	1.17	0.787	0.8	0.488
DLSEVYKPRRK [CCDC93_Y176]	0.579	0.352	0.623	0.454	0.574	0.521	0.407	0.573	0.634	0.59	0.513	0.575	0.761	0.481	0.414	0.315
DPADRYLIEQC [CDKL5_Y286_T288I]	0.51	0.587	1.32	0.682	1.06	0.511	0.556	0.518	0.467	0.903	0.626	0.777	1.19	0.67	0.88	0.544
DPFHVYIKNHV [KCNE3_Y95_R99H_YF]	0.382	0.469	1.32	0.735	1.2	0.585	0.519	0.403	0.354	0.915	0.671	0.918	1.22	0.839	0.978	0.643
DQGEQYKKELE [LMNA_Y259_V256G]	0.488	0.464	1.39	0.676	1.31	0.642	0.535	0.522	0.467	1.15	0.801	0.682	1.39	0.716	0.844	0.517
DRLASYLDKLR [KRT12_Y139_V143L]	0.459	0.458	0.894	0.567	0.713	0.479	0.472	0.498	0.45	0.868	0.494	0.597	0.921	0.582	0.876	0.545
DRQASYLDKVR [KRT16_Y131_L128Q]	0.418	0.39	0.662	0.419	0.609	0.324	0.399	0.385	0.388	0.494	0.39	0.424	0.536	0.614	0.846	0.465
DTDSSYCIPIA [GAB1_Y373_T377I]	0.467	0.586	1.05	0.721	0.925	0.483	0.413	0.435	1.16	0.82	0.829	0.706	2.21	0.441	0.88	0.551
DTFDPYLDIAL [USP36_Y268_V271I_YF]	0.692	0.783	1.52	0.589	1.39	1.08	0.577	0.832	0.527	0.727	0.73	1	1.25	0.548	0.944	0.487
DTKDDYNALSV [IL17RB_Y457]	0.599	0.544	1.07	0.625	0.916	0.483	0.546	0.443	0.426	0.679	0.495	0.718	1.08	0.668	0.869	0.498
DTMQTYNGNDE [TSPAN7_Y131_A127T]	0.491	0.695	1.17	0.632	0.976	0.557	0.642	0.502	0.382	0.758	0.589	0.817	0.976	0.578	0.874	0.44
EAAFVYAISSA [WNT4_Y113]	1.9	0.586	1.3	0.59	1.36	0.649	1.38	2.79	0.566	2.7	0.623	0.749	1.34	0.745	0.684	0.568
EDSEYYKAFEE [CASQ2_Y179]	0.425	0.51	1.34	0.489	1.11	0.487	0.508	0.547	0.372	0.793	0.526	0.742	1.37	0.748	0.921	0.614
EEKKKYFDTKI [CASP5_Y103_YF]	0.374	0.447	0.954	0.445	0.665	0.457	0.559	0.402	0.332	0.657	0.429	0.519	0.928	0.698	0.821	0.462
EEQKKYYNAMK [SCN5A_Y1494]	0.458	0.509	0.771	0.492	0.674	0.377	0.392	0.384	0.355	0.525	0.451	0.535	0.67	0.603	1.25	0.639
EEVPLYESATT [DCC_Y809_G805E]	1.07	0.487	1.32	2.66	1.27	6.01	1.49	1.09	0.601	1.04	2.19	0.878	1.5	0.574	0.8	0.457
EFGSGYPNDPK [RNASEH2A_Y210_D205E_YF]	0.441	0.406	0.875	0.51	0.797	0.41	0.503	0.539	0.653	0.79	0.562	0.594	0.884	0.611	0.879	0.376
EGELRYMHSRV [ABCD1_Y281_K276E]	0.507	0.428	0.689	0.439	0.86	0.395	0.34	0.373	0.35	0.519	0.516	0.485	0.688	0.513	0.677	0.432
EGLRRYLENGK [HLA-A_Y195_W191G]	0.397	0.315	0.473	0.323	0.6	0.291	0.398	0.336	0.52	0.419	0.346	0.427	0.463	0.615	0.584	0.405
EHFSFYGMKAV [SLC15A2_Y61_R57H_YF]	0.473	0.441	1.04	0.601	0.901	0.48	0.846	0.579	0.417	0.624	0.498	0.615	0.868	0.629	0.795	0.41
